Target: the molecule itself
Test: crystal structure; DcpS (8-350, H268N) in 1:1 complex with m7GpppGU RNA, 5 mg/mL, 10 mM Hepes pH 7.5, 100 mM NaCl, 1.6 M NH4SO4; space group P212121, two dimers per asymmetric unit; 2.9 A

B1: DcpS from S. cerevisiae (residues 8-350; H268N) (enzyme, UniProt Q06151 8-350, looked up)
chain: FASLIKRFQFVSVLDSNPQTKVMSLLGTIDNKDAIITAEKTHFLFDETVRRPSQDGRSTPVLYNCENEYSCINGIQELKEITSNDIYYWGLSVIKQDMESNPTAKLNLIWPATPIHIKKYEQQNFHLVRETPEMYKRIVQPYIEEMCNNGRLKWVNNILYEGAESERVVYKDFSEENKDDGFLILPDMKWDGMNLDSLYLVAIVYRTDIKTIRDLRYSDRQWLINLNNKIRSIVPGCYNYAVHPDELRILVHYQPSYYHFNIHIVNIKHPGLGNSIAAGKAILLEDIIEMLNYLGPEGYMNKTITYAIGENHDLWKRGLEEELTKQLERDGIPKIPKIVNGFK
notes: Crystallised as a 1:1 complex with the capped dinucleotide m7GpppGU; also called Dcs1p; Scavenger Decapping Enzyme
Q: Does B1 bind?
A: Result: binds
